Measured values reported in patent US8298782B2, “Reversible MHC multimer staining for functional purification of antigen-specific T cells” (priority 2000, dated 2012).

Test system: LLO91-99-specific T cells
Assay: epitope-tag (HSV) staining for surface-bound MHC / dissociation experiments by flow cytometry
Assay type: cell-based
Procedure: FIG. 5: Development of a reversible MHC multimer staining technology. (a) LLO91-99-specific T cells were stained for 30 min with monomeric or tetrameric (“tet”) LLO91-99/H2-K^d/β2m-HSV-tag or p60217-225/H2-K^d/β2m-HSV-tag reagents. Cells were fixed without washing (upper histogram) or after 2 washing steps (lower histogram) with 1% paraformaldehyde and subsequently stained for remaining HSV-epitope-tag on the cell surface (x-axis). (b+c) LLO91-99-specific T cells were stained for 45 min with LLO91-99/H2-K^dStrep-tag® II peptide/β2-HSV-tag:Strep:Tactin® polypeptide polymers (IBA GmbH) (“poly”), briefly washed to remove unbound reagents, and incubated in the presence (b) or absence (c) of 1 mM d-biotin; all steps were performed at 4° C. Cell aliquots were harvested after different time intervals (indicated above histograms), fixed with 1% paraformaldehyde, and stained for remaining HSV-epitope-tag on the cell surface (x-axis).
FIG. 6: Improvement of MHC-Strep-tag® II peptide/Strep-Tactin® polypeptide (IBA GmbH) multimer reagents. […]
FIG. 7: Reversible MHC multimer staining and T cell function. […] (a) Staining for recombinant MHC-molecules (detected by epitope-tag staining, x-axis) on differently treated T cells. […] Numbers of viable bacteria (y-axis) were determined 48 h following Lysteria infection. […]

B1: monomeric MHC/epitope molecules: monomeric LLO91-99/H2-K^d/β2m-HSV-tag reagent (protein)
MHC heavy: GPHSLRYFVTAVSRPGLGEPRFIAVGYVDDTQFVRFDSDADNPRFEPRAPWMEQEGPEYWEEQTQRAKSDEQWFRVSLRTAQRYYNQSKGGSHTFQRMFGCDVGSDWRLLRGYQQFAYDGRDYIALNEDLKTWTAADTAALITRRKWEQAGDAEYYRAYLEGECVEWLRRYLELGNETLLRTDSPKAHVTYHPRSQVDVTLRCWALGFYPADITLTWQLNGEDLTQDMELVETRPAGDGTFQKWAAVVVPLGKEQNYTCHVHHKGLPEPLTLRWKLPPSTVSNT
b2m: IQKTPQIQVYSRHPPENGKPNILNCYVTQFHPPHIEIQMLKNGKKIPKVEMSDMSFSKDWSFYILAHTEFTPTETDTYACRVKHASMAEPKTVYWDRDM
peptide: GYKDGNEYI
modifications: left off: a dimerising Fc or GST; small tags and cut ends
notes: monomeric LLO91-99/H2-K^d/β2m-HSV-tag reagent
MHC monomers on the cell surface (after brief washing, 4° C.): all reagent-derived MHC monomers disappear from the cell surface | interaction of MHC monomers with T cell surface (fixed immediately with paraformaldehyde, no washing): some detectable interaction
